Test results: paper PMC7441159, “The metal binding site composition of the cation diffusion facilitator protein MamM cytoplasmic domain impacts its metal responsivity” (Scientific Reports, 2020)

B1: MamM CTD H264E (domain or fragment, Magnetospirillum gryphiswaldense MSR-1, UniProt V6F235 215-318, looked up)
chain: EAVQNRIVEAAERVPGVRGVIHLRARYVGQDIWADMIIGVDPENTVEQAEEICEAVQAAVCGKIRRIESLHVSAEAREIGDTTKPSFSDQPLSFDEVMLSKVDN
notes: MamM cytoplasmic C-terminal domain (CTD), Magnetospirillum gryphiswaldense MSR-1, UniProt Q6NE57 residues 215-318; A thrombin site follows the His tag
B2: MamM CTD D249H-H285D (domain or fragment, Magnetospirillum gryphiswaldense MSR-1, UniProt V6F235 215-318, looked up)
chain: EAVQNRIVEAAERVPGVRGVIHLRARYVGQDIWAHMIIGVDPENTVEQAHEICEAVQAAVCGKIRRIESLDVSAEAREIGDTTKPSFSDQPLSFDEVMLSKVDN
notes: as for B1
B3: MamM CTD H285D (domain or fragment, Magnetospirillum gryphiswaldense MSR-1, UniProt V6F235 215-318, looked up)
chain: EAVQNRIVEAAERVPGVRGVIHLRARYVGQDIWADMIIGVDPENTVEQAHEICEAVQAAVCGKIRRIESLDVSAEAREIGDTTKPSFSDQPLSFDEVMLSKVDN
notes: as for B1
B4: MamM CTD D249E (domain or fragment, Magnetospirillum gryphiswaldense MSR-1, UniProt V6F235 215-318, looked up)
chain: EAVQNRIVEAAERVPGVRGVIHLRARYVGQDIWAEMIIGVDPENTVEQAHEICEAVQAAVCGKIRRIESLHVSAEAREIGDTTKPSFSDQPLSFDEVMLSKVDN
notes: as for B1
B5: MamM CTD E289H (domain or fragment, Magnetospirillum gryphiswaldense MSR-1, UniProt V6F235 215-318, looked up)
chain: EAVQNRIVEAAERVPGVRGVIHLRARYVGQDIWADMIIGVDPENTVEQAHEICEAVQAAVCGKIRRIESLHVSAHAREIGDTTKPSFSDQPLSFDEVMLSKVDN
notes: as for B1
B6: MamM CTD E289D (domain or fragment, Magnetospirillum gryphiswaldense MSR-1, UniProt V6F235 215-318, looked up)
chain: EAVQNRIVEAAERVPGVRGVIHLRARYVGQDIWADMIIGVDPENTVEQAHEICEAVQAAVCGKIRRIESLHVSADAREIGDTTKPSFSDQPLSFDEVMLSKVDN
notes: as for B1
B7: MamM CTD H264E-E289H (domain or fragment, Magnetospirillum gryphiswaldense MSR-1, UniProt V6F235 215-318, looked up)
chain: EAVQNRIVEAAERVPGVRGVIHLRARYVGQDIWADMIIGVDPENTVEQAEEICEAVQAAVCGKIRRIESLHVSAHAREIGDTTKPSFSDQPLSFDEVMLSKVDN
notes: MamM cytoplasmic C-terminal domain (CTD), Magnetospirillum gryphiswaldense MSR-1, UniProt Q6NE57 residues 215-318; A thrombin site follows the His tag; also called E289H-H264E
B8: MamM CTD D249H (domain or fragment, Magnetospirillum gryphiswaldense MSR-1, UniProt V6F235 215-318, looked up)
chain: EAVQNRIVEAAERVPGVRGVIHLRARYVGQDIWAHMIIGVDPENTVEQAHEICEAVQAAVCGKIRRIESLHVSAEAREIGDTTKPSFSDQPLSFDEVMLSKVDN
notes: as for B1
B9: MamM CTD D249N (domain or fragment, Magnetospirillum gryphiswaldense MSR-1, UniProt V6F235 215-318, looked up)
chain: EAVQNRIVEAAERVPGVRGVIHLRARYVGQDIWANMIIGVDPENTVEQAHEICEAVQAAVCGKIRRIESLHVSAEAREIGDTTKPSFSDQPLSFDEVMLSKVDN
notes: as for B1

Target: the molecule itself
Experiment: crystal structure; homodimer seen in the crystal; vapor diffusion at 293 K, protein at 20 mg/mL in 10 mM Tris pH 8.0, 150 mM NaCl, 5 mM β-mercaptoethanol and 3.375 mM metal solution (ZnCl2, CdCl2, MnCl2, NiCl2 or CuSO4)

Binding result, binds:
B1
B2
B3
B4
B5
B6
B7
B8
B9
